Our source for the removal of SHP-2 from the extracts on immuno-depletion of PZR and loss of PZR from the extracts on immuno-depletion of SHP-2 values is US20030171565A1.

The target of test [1] is protein zero related (PZR), tyrosine-phosphorylated (human) (UniProt O95297). The test is described as follows: immuno-depletion of extracts of pervanadate-treated cells with anti-PZR, Western blot of the supernatants.
Test [2] shares this target. The test is described as follows: immuno-depletion of extracts of pervanadate-treated cells with anti-SHP-2, Western blot of the supernatants.

Sequence of protein zero related (PZR), tyrosine-phosphorylated (human) (O95297 36-269 limits assumed): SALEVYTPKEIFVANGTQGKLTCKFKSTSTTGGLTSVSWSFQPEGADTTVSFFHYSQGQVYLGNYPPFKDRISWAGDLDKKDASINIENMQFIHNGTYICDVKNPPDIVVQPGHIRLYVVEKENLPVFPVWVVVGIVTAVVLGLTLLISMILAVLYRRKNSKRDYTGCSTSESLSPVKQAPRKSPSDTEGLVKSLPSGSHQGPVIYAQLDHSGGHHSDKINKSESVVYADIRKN

Turning to “tyrosine phosphatase SHP-2, native full-length form (from UniProt Q06124 2-593) (enzyme)”, the removal of SHP-2 from the extracts on immuno-depletion of PZR in test [1] worked out at 50%. The substance also registered a loss of PZR from the extracts on immuno-depletion of SHP-2 in test [2] of more than 90%.
